Results reported in the nanobody polyreactivity screen of Harvey et al. (2022).

Assay: yeast display, Sf9 membrane polyspecificity reagent, FACS + sequencing; frameworks hold sequencing errors
Procedure, shortened: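 Genes from sorted yeast were amplified by colony PCR, read by MiSeq 2 × 250 sequencing and filtered on CDR length. These cells carried a synthetic nanobody library in Saccharomyces cerevisiae BJ5465 and were sorted by FACS into low and high (top ~1%) gates on anti-HA and streptavidin fluorescence. Polyreactivity is labelled according to the gate of origin.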

Sequence	polyreactivity (PSR sort gate)
QVQLVESGGGLVQAGGSLRLSCAASGSTIYTYVMGWYRQAPGKERELVAAISWSGSSTYYADSVKGRFTISRDNAKNTVYLQMNSLKPEDTAVYYCNAQYRRGWWGVEYGYWGQGTQVTVSS	low polyreactivity
QVQLVESGGGLDQARGSLRLSCAASGSILRYYTMGWYRQAHGKERELVAAISYRGSSTYYADSVKGRFTISRDNAKNTVYLQMNSLKPEDTAVYYCARGGYYGYDYWGQGTQVTLSS	high polyreactivity
QVQLVESGGGLVQAGGSLRLSCAASGSIFSSYVMGWYRQAPGKERELVAAITFSGATTYYADSVKGRFTISRDNAKNTVYLQMNSLKPEDTAVYYCATKAYTTGRYYWGQGTQVTVSS	high polyreactivity
QVQLVESGGGLVQAGGSLRLSCAASGRTFGRYAMGWYRQAPGKERELVAAISWSGGSTYYADSVKGRFTISRDNAKNSVYLQMNSLKPEDTAVYYCAAYEHVYVYDYWGQGTQVTVSS	low polyreactivity
QVQLVESGGGLVQAGGSLRLSCAASGRIFWYYAMGWSRQAPGKERELVATISSRSGSTYYADSVKGRFTISRDNAKNTVYLQMNSLKPEDTAVYYCAAGTPYYLGYRHNTGLFDYWGQGTQVTVSS	high polyreactivity
HVQLVESGGGLVQAGGSLRLSCAASGSTLWYNAMGWNRQAPGKERELVAVITWTGGSTYYADSVKGRFTISRDNAKNTVYLQMNSLKPEDTAVYYCAVRWYFGNRYKYYYWGQGTQVTVSS	high polyreactivity
QVQLVESGGGLVKAGGSLRLSCAASGRTFGDNAMGWYRQAPGKERELVAAIRWGGGSTYYADSVKGRFTISRDNAKNTVYLQMNSLKPEDTAVYYCAKKGWSSHDRAWYIYDYWGQGSQVTVSS	low polyreactivity
QVQLVESGGGLVQAGGSLRLSCAASGFTYYHNAMGWYRQAPGKERELVAAISSSGDSTYYADSVKGRFTISRDNAKNTVYLQMKSLKPEDTAVYYCNDYFYYLSLYYYYWFNYDYWGQGTQVTVSS	low polyreactivity
QVQLVESGGGLVQAGGSLRLSCAASGRTFYSYAMGWYRQAPGKERELVAAISSSSGRTYYADSVKGRFTISRDNAKNTVYLQMNSLKPEDTAVYYCNRAGGYRTTFYSWGQGTQVTVSS	high polyreactivity
QVQLVESGGGLVQAGGSLRLSCAASGSIFYVYAMGWYRQAPGKERELDAGITTSGGSTYYADSVKGRFTISRDNAKNTVYLQMKSLKPEDTAVYYCATRNAFTAGSYNVYYGEYYWGQGTQVTVSS	low polyreactivity
QVQLVESGGGLVQAGGSLRLSCAASGRLFTGNAMGWYRQAPGKERELVADINRTGGSPYYADSVKGRFTISRDNAKNTVYVQLNSLKPVDTAVYDCAAYVPWGWRYGYNYWGQGTQVTVSS	high polyreactivity
QVQLVESGGGLVQAGGSLRLSCAASGRIFSSYAMGWYRQAPGKERELVAVISQRGGSTSYADSVKGRFTISRDNAKNTVYLQMNSLKPEDTAVYYCARRPGKGNNYWGQGTQVTVSS	high polyreactivity
QVQLVESGGGLVQAGGSLRLSCAASGSSLDSYTMGWSRQAPGKERELVAAITSDGGSTYYADSVKGRFTISRDNAKNTVYLQMNSLKPEDTAVDYCAKLSRYYGFWYTPDFDYWGQGTQVTVSS	high polyreactivity
QVQLVESGGGLVQAGGSLRLSCAASGSIFVYYAMGWYRQAPGKDRELVAAITTSGGSTYYADSVKGRFTISRDNAKNTVYLQMNSLKPEDTAVYYCAAVLLAWYWSYSVPWAYDYWGQGTQVTVTS	low polyreactivity
QVQLVVSGGGLVQAGGSLRLSCAASGRIFVYNAMGWYRQAPGKERELVATITSGGSTYYADSVKGRFTISRDNAKNTVYLQMNSLKPEDTAVYYCAARRWYVHYFAYGYWGQGTQVTVSS	low polyreactivity
QVQLVESGGGLVQAGGSLRLSCAASGSIFVKNVMGWYRQAPGKERELVAAISSSGGRTYYADSVKGRFTISRDNAKNTVYLQMNSLKPEDTAVYYCNKAYPGRRDGSYDYWGQGTQVTVSS	high polyreactivity
QGQLVETGGGLVQAGGSLRLSCAASGSTFSYYAMGWYRQAPGKEREWVAAISRRGGSTYYADSVKGRFTISRDNAKNTVYLQMISLKPEDTAVNYCAADDYYSSRIEYYNWGQGTQVTVSS	high polyreactivity
